In patent US20210054097A1 (Novo Nordisk, published 2021):
Ends that are not written are not given here.

T1: FX activation peptide 12-mer LDPTENPFDLLD (human)
T1 peptide: LDPTENPFDLLD-biotin

T2: FX activation peptide 12-mer APDSITWKPYDA (human)
T2 peptide: APDSITWKPYDA-biotin

T3: FX activation peptide 12-mer EAPDSITWKPYD (human)
T3 peptide: EAPDSITWKPYD-biotin

T4: FX activation peptide 12-mer DFNQTQPERGDN (human)
T4 peptide: DFNQTQPERGDN-biotin

T5: FX activation peptide 12-mer DSITWKPYDAAD (human)
T5 peptide: DSITWKPYDAAD-biotin

T6: FX activation peptide 12-mer PTENPFDLLDFN (human)
T6 peptide: PTENPFDLLDFN-biotin

T7: FX activation peptide 12-mer ENPFDLLDFNQT (human)
T7 peptide: ENPFDLLDFNQT-biotin

T8: FX activation peptide 12-mer PFDLLDFNQTQP (human)
T8 peptide: PFDLLDFNQTQP-biotin


Assays:
[1] = molecular target: T1, FX activation peptide 12-mer …; assay: peptide ELISA
How it was run: (§1)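 Nanobodies (FLAG-tagged) or IgG antibodies, 2 μg/mL, incubated 1 h on C-terminally biotinylated peptide captured via streptavidin, washing buffer pH 8.60 containing CaCl₂ and Tween 20. Read-out: HRP-conjugated secondary antibody with TMB colour development.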

[2] = molecular target: T2, FX activation peptide 12-mer …; assay: peptide ELISA
How it was run: as §1

[3] = molecular target: T3, FX activation peptide 12-mer …; assay: peptide ELISA
How it was run: as §1

[4] = molecular target: T4, FX activation peptide 12-mer …; assay: peptide ELISA
How it was run: as §1

[5] = molecular target: T5, FX activation peptide 12-mer …; assay: peptide ELISA
How it was run: as §1

[6] = molecular target: T9, human plasma-derived Factor X zymogen (human, UniProt P00742 41-179; P00742 183-488); assay: cell-based or functional assay
[7] = molecular target: T9, human plasma-derived Factor X zymogen; assay: apparent KD fitted from FXa generation assay
Method: The ability of the monovalent anti-FX Nanobody® (Nb) to promote FIXa-mediated FX-activation was determined in the presence of a procoagulant phospholipid membrane according to the principles described by Scheiflinger et al. (2008) J Thromb Haemost, 6:315-322. A Fab of mAb 13F62 (IgG1 isotype, variable sequences identified by SEQ ID NO:6 and 7), also found to bind the activation peptide, were included for comparison. Moreover, anti-FX antibodies as disclosed in U.S. Pat. No. 9,334,331 (J327 and L404-k in said publication), corresponding to the anti-FX arm of ACE910); and more recently in WO2018/021450 (J327 D31H and JYL280 in said publication) and WO2018/098363 (BIIB-12-917 represented by SEQ ID NO:427 and 615 in said publication) are stated to be suitable for use as part of anti-FIX/anti-FX bispecific FVIII mimetic compounds were, furthermore, included for comparison.
Each compound was tested individually in a concentration range from 0-1000 nM, 0-2000 nM, 0-4000 nM or 0-8000 nM by pre-incubation with 1-1.5 nM human plasma-derived FIXa (Haematologic Technologies Inc, USA) and 500 μM 25:75 phosphatidyl serine:phosphatidyl choline phospholipid vesicles (Haematologic Technologies Inc, USA) in assay buffer (50 mM HEPES, 100 mM NaCl, 5 mM CaCl₂, 0.1% (w/v) PEG8000, 1 mg/mL bovine serum albumin, pH 7.3) for 10 minutes. The reaction was initiated by addition of human plasma-derived FX (Haematologic Technologies Inc, USA) to a final concentration of 100 nM and a reaction volume of 50 μL. Following 20 minutes activation at room temperature while agitated (1000 RPM), the reaction was quenched by addition of 25 μL quench buffer (50 mM HEPES, 100 mM NaCl, 60 mM EDTA, 0.1% (w/v) PEG8000, 1 mg/mL bovine serum albumin, pH 7.3). The amount of FXa generated was determined by addition of 25 μL 2 mM S-2765 chromogenic substrate for FXa (Chromogenix, Sweden) and chromogenic substrate conversion was followed by measuring absorbance at 405 nm for 10 minutes in a microplate reader. The observed change in 405 nm absorbance (ΔAbs405/min) was fitted to the quadratic binding equation (eq. 1) to obtain the peak stimulatory activity and EC50.

[8] = molecular target: T9, human plasma-derived Factor X zymogen; assay: SPR steady state, Nb captured by anti-His mAb, FX injected
Method: Binding of purified anti-FX Nanobodies (Nb) to human plasma-derived FX (Haematologic Technologies Inc, USA) was probed by Surface Plasmon Resonance (SPR) (Biacore T200). Briefly, anti-His mAb (MAB050 from R&D systems) was immobilised on a CM4 sensor chip using standard amine coupling chemistry. Anti-FX Nanobodies (10 nM), according to Table 3, was injected at a flow rate of 10 μL/min for 1 minute. Subsequently 4096, 1024, 256, 64, 16, 4, and 0 nM of FX were injected at a flow rate of 30 μL/min for 4 minutes to allow for binding to anti-FX Nb followed by a 5 minutes running buffer (10 mM HEPES, 150 mM NaCl, 5 mM CaCl₂, 0.05% (v/v) Surfactant P20, 1 mg/mL bovine serum albumin, pH 7.4) injection allowing dissociation from anti-FX Nanobody®. The running buffer was also for dilution of anti-FX Nb and FX samples. Regeneration of the chip was achieved using a regeneration buffer consisting of 3M MgCl₂, 30 seconds contact time, and a 30 μL/min flow rate. The binding data were collected at 25° C. and were analysed according to a 1:1 model using BiaEvaluation 4.1 supplied by the manufacturer (Biacore AB, Uppsala, Sweden).
Therefore, the reported KD values are determined based on steady state analysis. The strongest binder identified is Nb702C12, while the others Nanobodies® tested binds FX with a slightly higher KD and lower Rₘₐₓ.

[9] = molecular target: T6, FX activation peptide 12-mer …; assay: peptide ELISA
How it was run: as §1

[10] = molecular target: T7, FX activation peptide 12-mer …; assay: peptide ELISA
How it was run: as §1

[11] = molecular target: T8, FX activation peptide 12-mer …; assay: peptide ELISA
How it was run: as §1

T9 sequence (P00742 41-179, chain 1 of 2): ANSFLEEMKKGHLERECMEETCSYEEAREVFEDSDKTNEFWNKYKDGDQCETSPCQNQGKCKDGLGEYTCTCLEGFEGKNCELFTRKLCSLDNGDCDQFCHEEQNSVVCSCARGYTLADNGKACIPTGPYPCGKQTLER
T9 sequence (P00742 183-488, chain 2 of 2): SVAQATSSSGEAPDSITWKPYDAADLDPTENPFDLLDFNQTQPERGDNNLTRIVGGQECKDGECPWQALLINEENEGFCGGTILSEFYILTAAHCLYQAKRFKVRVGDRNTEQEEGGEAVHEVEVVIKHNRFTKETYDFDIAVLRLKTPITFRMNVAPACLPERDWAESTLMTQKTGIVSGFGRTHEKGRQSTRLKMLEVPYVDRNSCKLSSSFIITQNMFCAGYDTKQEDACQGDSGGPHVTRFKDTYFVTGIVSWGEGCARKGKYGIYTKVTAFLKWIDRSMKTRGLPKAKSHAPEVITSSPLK

Binder	ELISA signal relative to background [1]	ELISA signal relative to background [2]	ELISA signal relative to background [3]	ELISA signal relative to background [4]	ELISA signal relative to background [5]	Increase in FX activation (fold) [6]	Kd [7]	Kd [8]	ELISA signal relative to background [9]	ELISA signal relative to background [10]	ELISA signal relative to background [11]	binding result [9]	binding result [1]	binding result [2]	binding result [10]	binding result [3]	binding result [4]	binding result [5]	binding result [11]
Nb 701C06 (VHH, monovalent Nanobody; not shown: C-terminal FLAG3 and HIS6 tag) VHH: EVQLVESGGGVVQPGGSLRLSCAASGRTFSTYAMGWFRQAPGKEREFVAAISRRGGRTYYADSVKGRFTISRDNSKNTVYLQMNSLRPEDTALYYCAADATARDGLLDYWGQGTLVTVSS	0.94	0.96	0.89	0.87	0.93	26 fold	41.9 nM	960 nM											
Nb 702C12 (VHH, monovalent Nanobody; not shown: C-terminal FLAG3 and HIS6 tag) VHH: EVQLVESGGGVVQPGGSLRLSCVASGRTFSRYAMGWFRQAPGKEREFVAAISRRGGSTNYADSVKGRFTISRDNSKNTVYLQMNSLRPEDTALYYCAADYSSGDGYLDYWGQGTLVTVSS	1.11	1.06	0.97	0.94	1.08	18.9 fold	75.4 nM	1200 nM	4.58	4	4.95								
Nb 701D07 (VHH, monovalent Nanobody; not shown: C-terminal FLAG3 and HIS6 tag) VHH: EVQLVESGGGVVQPGGSLRLSCAASGGTLSRYAMGWFRQAPGKEREFVAAITRRGSRTYYADSVKGRFTISRDNSKNTVYLQMNSLRPEDTALYYCAADLAPGDYALDYWGQGTLVTVSS	0.8	0.9	0.76	0.75	0.89	17.2 fold	66.1 nM	2400 nM											
Nb 701B09 (VHH, monovalent Nanobody; also called Nb 701609; not shown: C-terminal FLAG3 and HIS6 tag) VHH: EVQLVESGGGVVQPGGSLRLSCAASGRTFSTYAMGWFRQAPGKEREFVAAISWSGSRTYYADSVKGRFTISRDNSKNTVYLQMNSLRPEDTALYYCAADATPANGELDYWGQGTLVTVSS	0.84	0.82	0.79	0.87	0.76	83 fold	72.3 nM	2100 nM	3.91	3.43	3.48								
Nb 501A02 (VHH, monovalent control Nanobody; also called control Nanobody; not shown: C-terminal FLAG3 and HIS6 tag) VHH: EVQLVESGGGLVQPGGSLRLSCAASGFTFSNYEMSWVRQAPGKGLEWVSDIGSGGGVSTYYADSVKGRFTISRDNAKNTLYLQMNSLKPEDTAMYYCARGWTYGSDGMDYWGKGTLVTVSS	0.91	0.74	0.76	0.71	0.79	0.8 fold	802 nM		0.88	0.82	0.79	no binding (tested: 2 µg/mL)	no binding (tested: 2 µg/mL)	no binding (tested: 2 µg/mL)	no binding (tested: 2 µg/mL)	no binding (tested: 2 µg/mL)	no binding (tested: 2 µg/mL)	no binding (tested: 2 µg/mL)	no binding (tested: 2 µg/mL)
Nb 729C08 (VHH, monovalent Nanobody; also called Nb 729008; not shown: C-terminal FLAG3 and HIS6 tag) VHH: EVQLVESGGGVVQPGGSLRLSCAASGFTFSDYAMSWVRQAPGKGLEWVSGITGGGRTYYADSVKGRFTISRDNSKNTLYLQMNSLRPEDTALYYCAAAILTRTRRTYDYWGQGTLVTVSS		1.09	1.11	1.1	1.09	> 32 fold	~1400 nM		2.06	8.06	1.18								
Nb 729A04 (VHH, monovalent Nanobody; not shown: C-terminal FLAG3 and HIS6 tag) VHH: EVQLVESGGGVVQPGGSLRLSCAASGFTFSDYAMSWVRQAPGKGLEWVSGITSGGGRTYYADSVKGRFTISRDNSKNTLYLQMNSLRPEDTALYYCAAVRTLGLRGSYDYWGQGTLVTVSS		1.04	1.01	0.97	1.05	4.1 fold	83.2 nM		5.18	17.8									
Nb 730C03 (VHH, monovalent Nanobody; also called Nb 730003; not shown: C-terminal FLAG3 and HIS6 tag) VHH: EVQLVESGGGVVQPGGSLRLSCVASGFTFSDYAMSWVRQAPGKGLEWVSGITSGSGRTYYADSVKGRFTISRDNSKNTVYLQMNSLRPEDTALYYCAAAILRGYRKTYDYWGQGTLVTVSS	1.3	1.16	1.24	1.16	1.22	9.2 fold	63.9 nM			6.57	1.23								
